In assay [1] the target is HIV-1_(YU-2) gp140 trimer (HIV-1 YU-2). As to the kind of experiment: BLI; equilibrium.
The target is the same in assay [2]. As to the kind of experiment: BLI; kinetic.

B1: IgG1 b12 EFTAE Fc variant (antibody, V domains shown)
VH: QVQLVQSGAEVKKPGASVKVSCQASGYRFSNFVIHWVRQAPGQRFEWMGWINPYNGNKEFSAKFQDRVTFTADTSANTAYMELRSLRSADTAVYYCARVGPYSWDDSPQDNYYMDVWGKGTTVIVSS
VL: EIVLTQSPGTLSLSPGERATFSCRSSHSIRSRRVAWYQHKPGQAPRLVIHGVSNRASGISDRFSGSGSGTDFTLTITRVEPEDFALYYCQVYGASSYTFGQGTKLERK
Regarding B1, the Kd in assay [1] is 1.93 nM; in assay [2], 2.78 nM.

B2: IgG1 b12 KA Fc variant (antibody, V domains shown)
VH: B1 VH
VL: B1 VL
B2: the values for the Kd in assay [1] and in assay [2] were 2.95 nM and 2.56 nM, respectively.

B3: IgG1 b12 EG Fc variant (antibody, V domains shown)
VH: B1 VH
VL: B1 VL
On to B3, for which the Kd came out at 0.9 nM in assay [1] and 2.26 nM in assay [2].

B4: IgG1 b12 (unmodified Fc) (antibody, V domains shown)
VH: B1 VH
VL: B1 VL
As to B4, the results for the Kd in assay [1] and in assay [2] were 2.18 nM and 1.72 nM, respectively.

B5: IgG1 b12 LALA Fc variant (antibody, V domains shown)
VH: B1 VH
VL: B1 VL
Regarding B5, the values for the Kd in assay [1] and in assay [2] were 2.04 nM and 2.06 nM, respectively.

Source of the values: article PMC8510540 (2021).
